A value given as a limit tells only on which side of the number the result lay.

By Kd is commonly meant the equilibrium constant for the complex coming apart. One may read the koff as the first-order rate constant of dissociation. Usually kon stands for a measure of how fast the partners come together.

In test [1] the target is HLA-A2-flu (biotinylated HLA-A2 plus Influenza matrix protein 58-66, immobilised on streptavidin) (human; Influenza). The test can be described thus: SPR (BIAcore) equilibrium binding, immobilised HLA-A2-flu, 37 °C, mean ± range.
The target in test [2] is HLA-A2-pol (biotinylated HLA-A2 plus HIV-1 polymerase 476-484, immobilised on streptavidin) (human; HIV-1).

B1: soluble CD8αα receptor (residues 1-120 of the mature human CD8α protein, expressed in E. coli and refolded as a homodimer) (receptor)
chain: not shown
notes: also called sCD8αα; CD8 A
Regarding B1, the Kd in test [1] turned out to be 629 µM. Besides, in test [2], the koff worked out at 18 s⁻¹ and the kon is not below 140000 M⁻¹ s⁻¹.

These data come from US20070191278A1 (AVIDEX, published 2007).
